Patent EP4538286A1 (Adlai Nortye Biopharma Co., Ltd., dated 2025)
Substitutions are numbered along the chain they refer to. Names may count otherwise.

T1: human CTLA4 protein (human, UniProt P16410 37-162, limits assumed)
T1 construct: bought protein coated on the ELISA plate; also called human CTLA4 antigen
T1 sequence (looked up): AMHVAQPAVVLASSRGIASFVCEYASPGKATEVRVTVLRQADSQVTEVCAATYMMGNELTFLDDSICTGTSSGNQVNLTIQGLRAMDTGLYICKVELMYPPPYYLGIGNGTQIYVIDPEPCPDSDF

B1: Abs-264 (other)
heavy: VIHVTKEVKEVATLSCGWNVSVEELVQTRIYWQKNKKMVLTMMSGDMNIWPEYKNRTIFDITNNLSIVILELRPSDEGTYECVVNKYEKDAFKREHLAEVTLSVKADGGGGSGGGGSGGGGSGGGGSGEVQLLESGGGLVQPGGSLRLSCAASGFTFSSYAMSWVRQAPGKGLEWVSGISGSGGFTYYADSVKGRFTISRDNSKNTLYLQMNSLRAEDTAVYYCAKPPRGYNYGPFDYWGQGTLVTVSSASTKGPSVFPLAPCSRSTSESTAALGCLVKDYFPEPVTVSWNSGALTSGVHTFPAVLQSSGLYSLSSVVTVPSSSLGTKTYTCNVDHKPSNTKVDKRVESKYGPPCPPCPAPEFLGGPSVFLFPPKPKDTLMISRTPEVTCVVVDVSQEDPEVQFNWYVDGVEVHNAKTKPREEQFNSTYRVVSVLAVLHQDWLNGKEYKCKVSNKGLPSSIEKTISKAKGQPREPQVYTLPPSQEEMTKNQVSLTCLVKGFYPSDIAVAWESNGQPENNYKTTPPVLDSDGSFFLYSRLTVDKSRWQEGNVFSCSVMHEALHAHYTQKSLSLSLGK
light: SYVLTQPPSVSVAPGQTARITCGGNNIGSKSVHWYQQKPGQAPVLVVYDDSDRPSGIPERFSGSNSGNTATLTISRVEAGDEADYYCQVWDSSSDHVVFGGGTKLTVLGQPKAAPSVTLFPPSSEELQANKATLVCLISDFYPGAVTVAWKADSSPVKAGVETTTPSKQSNNKYAASSYLSLTPEQWKSHRSYSCQVTHEGSTVEKTVAPTECS
notes: the paragraph that names the antibody is followed; also called CD80 IgV mutant H18W/A26V/E35N/A71E/L85N-sugemalimab fusion
B2: Abs-365 (other)
heavy: B1 heavy with W18H, V26A, N35T, N85L
light: B1 light
notes: CD80 IgV mutant fused to the N-terminus of the sugemalimab heavy chain; also called CD80 IgV mutant E35T/A71E-sugemalimab fusion
B3: Abs-356 (other)
heavy: B1 heavy with W18H, V26A, E71T, N85L
light: B1 light
notes: CD80 IgV mutant fused to the N-terminus of the sugemalimab heavy chain; also called CD80 IgV mutant E35N/A71T-sugemalimab fusion
B4: Abs-354 (other)
heavy: B1 heavy with W18H, V26A, E71N, N85L
light: B1 light
notes: CD80 IgV mutant fused to the N-terminus of the sugemalimab heavy chain; also called CD80 IgV mutant E35N/A71N-sugemalimab fusion
B5: Abs-363 (other)
heavy: B1 heavy with W18H, V26A, N35Q, E71Q, N85L
light: B1 light
notes: CD80 IgV mutant fused to the N-terminus of the sugemalimab heavy chain; also called CD80 IgV mutant E35Q/A71Q-sugemalimab fusion
B6: Abs-357 (other)
heavy: B1 heavy with W18H, V26A, N35S, N85L
light: B1 light
notes: CD80 IgV mutant fused to the N-terminus of the sugemalimab heavy chain; also called CD80 IgV mutant E35S/A71E-sugemalimab fusion
B7: Abs-359 (other)
heavy: B1 heavy with W18H, V26A, N35S, E71Q, N85L
light: B1 light
notes: CD80 IgV mutant fused to the N-terminus of the sugemalimab heavy chain; also called CD80 IgV mutant E35S/A71Q-sugemalimab fusion
B8: Abs-361 (other)
heavy: B1 heavy with W18H, V26A, N35Q, N85L
light: B1 light
notes: CD80 IgV mutant fused to the N-terminus of the sugemalimab heavy chain; also called CD80 IgV mutant E35Q/A71E-sugemalimab fusion
B9: Abs-360 (other)
heavy: B1 heavy with W18H, V26A, N35S, E71T, N85L
light: B1 light
notes: CD80 IgV mutant fused to the N-terminus of the sugemalimab heavy chain; also called CD80 IgV mutant E35S/A71T-sugemalimab fusion
B10: Abs-367 (other)
heavy: B1 heavy with W18H, V26A, N35T, E71Q, N85L
light: B1 light
notes: the paragraph that names the antibody is followed; also called CD80 IgV mutant E35T/A71Q-sugemalimab fusion
B11: Abs-355 (other)
heavy: B1 heavy with W18H, V26A, E71Q, N85L
light: B1 light
notes: CD80 IgV mutant fused to the N-terminus of the sugemalimab heavy chain; also called CD80 IgV mutant E35N/A71Q-sugemalimab fusion
B12: Abs-358 (other)
heavy: B1 heavy with W18H, V26A, N35S, E71N, N85L
light: B1 light
notes: CD80 IgV mutant fused to the N-terminus of the sugemalimab heavy chain; also called CD80 IgV mutant E35S/A71N-sugemalimab fusion
B13: Abs-368 (other)
heavy: B1 heavy with W18H, V26A, N35T, E71T, N85L
light: B1 light
notes: the paragraph that names the antibody is followed; also called CD80 IgV mutant E35T/A71T-sugemalimab fusion
B14: Abs-364 (other)
heavy: B1 heavy with W18H, V26A, N35Q, E71T, N85L
light: B1 light
notes: CD80 IgV mutant fused to the N-terminus of the sugemalimab heavy chain; also called CD80 IgV mutant E35Q/A71T-sugemalimab fusion
B15: Abs-362 (other)
heavy: B1 heavy with W18H, V26A, N35Q, E71N, N85L
light: B1 light
notes: CD80 IgV mutant fused to the N-terminus of the sugemalimab heavy chain; also called CD80 IgV mutant E35Q/A71N-sugemalimab fusion

target: T2, human CD28 protein (human, UniProt P10747 19-152); assay: ELISA, plate-coated human CD28; set-up: binding strength @ 100nM: reference not given here
T2 construct: bought protein coated on the ELISA plate; also called human CD28 antigen
T2 sequence (P10747 19-152 limits assumed): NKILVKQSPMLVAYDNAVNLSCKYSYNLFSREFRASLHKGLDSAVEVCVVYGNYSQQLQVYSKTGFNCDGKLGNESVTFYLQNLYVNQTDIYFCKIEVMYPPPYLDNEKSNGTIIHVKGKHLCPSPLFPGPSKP

Row | Binder | binding result | EC50 [nM] | binding strength @ 100nM [%]
1 | B1 | no binding |  | 
2 | B2 |  | 27.9 | 857
3 | B3 |  | 27.8 | 733
4 | B4 |  | 22.1 | 6300
5 | B5 | no binding |  | 
6 | B6 |  | 26 | 585
7 | B7 |  | 21.1 | 450
8 | B8 | no binding |  | 
9 | B9 |  | 25.9 | 933
10 | B10 |  | 27.7 | 700
11 | B11 |  | 26.8 | 530
12 | B12 | no binding |  | 
13 | B13 |  | 28.7 | 700
14 | B14 |  | 27.6 | 785
15 | B15 |  | 26.1 | 1100

target: PD-L1 on TCR activator PD-L1-CHO cells (UniProt Q9NZQ7 19-290, limits assumed); assay: cell-based or functional assay
Sequence (Q9NZQ7 19-290 limits assumed): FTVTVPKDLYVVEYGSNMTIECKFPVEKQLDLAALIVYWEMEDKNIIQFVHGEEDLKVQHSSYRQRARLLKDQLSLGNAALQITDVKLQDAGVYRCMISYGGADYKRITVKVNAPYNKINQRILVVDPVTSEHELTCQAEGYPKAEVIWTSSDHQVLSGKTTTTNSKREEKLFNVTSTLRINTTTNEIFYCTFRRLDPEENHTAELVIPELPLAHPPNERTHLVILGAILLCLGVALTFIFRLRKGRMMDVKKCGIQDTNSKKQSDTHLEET

Row | Binder | EC50(nM), Jurkat-NFAT-Luc/CHO-PDL1 [nM] | The highest induction relative to 10 nM sugemalimab [%]
16 | B1 | 0.82 | 154
17 | B2 | 2.75 | 129
18 | B3 | 0.9 | 441
19 | B4 | 0.25 | 1610
20 | B5 | 1 | 121
21 | B6 | 1 | 238
22 | B7 | 0.88 | 42
23 | B8 | 1.13 | 334
24 | B9 | 0.82 | 64
25 | B10 | 1.84 | 113
26 | B11 | 0.56 | 1110
27 | B12 | 1.1 | 277
28 | B13 | 0.52 | 138
29 | B14 | 1.06 | 150
30 | B15 | 0.58 | 337

target: T1, human CTLA4 protein; assay: ELISA, plate-coated human CTLA4

Row | Binder | binding result | EC50 [nM] | binding strength @ 20nM [%]
31 | B1 | no binding |  | 
32 | B2 |  | 24.7 | 400
33 | B3 |  | 18.5 | 1670
34 | B4 |  | 0.124 | 3010
35 | B5 | no binding |  | 
36 | B6 |  | 17.8 | 1830
37 | B7 |  | 26.4 | 766
38 | B8 | no binding |  | 
39 | B9 |  | 26.7 | 316
40 | B10 |  | 26.5 | 640
41 | B11 |  | 0.236 | 3420
42 | B12 | no binding |  | 
43 | B13 | no binding |  | 
44 | B14 |  | 5.45 | 3130
45 | B15 |  | 8.39 | 3180
